Laboratory results from patent publication US20250250357A1.
Blank lines part the entries; values can stand above or below the substance they belong to.

Columns and labels:
[1] = biological target: human MSLN-R2-his protein (human) (UniProt Q13421); test: ELISA, coated MSLN-R2
[2] = biological target: human MSLN-R3-3 polypeptide (human); test: ELISA on coated antigen, antibody 0.0001 nM
[3] = biological target: human MSLN-FL-his protein (human) (UniProt Q13421); test: ELISA on coated antigen, no antibody (blank, column 'none')
Sequence of human MSLN-FL-his protein (human) (Q13421 other isoform, or with tags, fused parts or gaps): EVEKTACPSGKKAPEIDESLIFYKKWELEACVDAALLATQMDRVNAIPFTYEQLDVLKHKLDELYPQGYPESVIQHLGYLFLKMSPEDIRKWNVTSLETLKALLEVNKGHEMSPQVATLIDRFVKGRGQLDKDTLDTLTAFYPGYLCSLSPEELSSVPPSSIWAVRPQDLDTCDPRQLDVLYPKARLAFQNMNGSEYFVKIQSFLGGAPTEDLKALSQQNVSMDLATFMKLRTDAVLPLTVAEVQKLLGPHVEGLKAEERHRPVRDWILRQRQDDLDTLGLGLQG

[4] = biological target: human MSLN-R3-3 polypeptide (human); test: ELISA on coated antigen, antibody 100 nM
[5] = biological target: human MSLN-FL-his protein (human) (UniProt Q13421); test: ELISA on coated antigen, antibody 100 nM
[6] = biological target: human MSLN-R3-3 polypeptide (human); test: ELISA, coated antigen; antibody 0.001 nM
[7] = biological target: human MSLN-R3-3 polypeptide (human); test: ELISA on coated antigen, no antibody (column none)
[8] = biological target: human MSLN-R3-3 polypeptide (human); test: ELISA on coated antigen, antibody 1 nM
[9] = biological target: human MSLN-FL-his protein (human) (UniProt Q13421); test: ELISA on coated antigen, antibody 1 nM
[10] = biological target: human MSLN-R3-3 polypeptide (human); test: ELISA on coated antigen, antibody 0.01 nM
[11] = biological target: human MSLN-FL-his protein (human) (UniProt Q13421); test: ELISA on coated antigen, antibody 0.01 nM
[12] = biological target: human MSLN-R3-3 polypeptide (human); test: ELISA, coated antigen; no antibody (blank, column 'none')
[13] = biological target: human MSLN-R3-3 polypeptide (human); test: ELISA on coated antigen, antibody 10 nM
[14] = biological target: human MSLN-R3-3 polypeptide (human); test: ELISA, coated MSLN-R3-3
[15] = biological target: human MSLN-R3-3 polypeptide (human); test: ELISA, coated antigen; antibody 0.0001 nM
[16] = biological target: human MSLN-R3-3 polypeptide (human); test: ELISA on coated antigen, antibody 0.001 nM
[17] = biological target: human MSLN-R3-3 polypeptide (human); test: ELISA on coated antigen, antibody 0.1 nM
[18] = biological target: human MSLN-FL-his protein (human) (UniProt Q13421); test: ELISA on coated antigen, antibody 0.1 nM
[19] = biological target: human MSLN-R3-his protein (human) (UniProt Q13421); test: ELISA on coated antigen, antibody 0.0002 nM
Sequence of human MSLN-R3-his protein (human) (Q13421 495-606): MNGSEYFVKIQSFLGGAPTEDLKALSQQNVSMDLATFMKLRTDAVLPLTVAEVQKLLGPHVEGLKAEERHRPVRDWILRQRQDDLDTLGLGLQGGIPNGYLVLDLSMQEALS

[20] = biological target: human MSLN-R2-his protein (human) (UniProt Q13421); test: ELISA on coated antigen, antibody 0.0002 nM
[21] = biological target: monkey MSLN full-length protein (NCBI: XP_028696439.1) on HEK293T cells (monkey); test: FACS on HEK293T-monkey MSLN cells; antibody 4 nM
[22] = biological target: monkey MSLN full-length protein (NCBI: XP_028696439.1) on HEK293T cells (monkey); test: FACS on HEK293T-monkey MSLN cells; antibody 20 nM
[23] = biological target: human MSLN-R3-3 polypeptide (human); test: ELISA; antibody 1 nM
[24] = biological target: human MSLN full-length protein (NCBI: AAH09272.1) on stably transfected CHO-K1 or HEK293T cells (human) (UniProt Q13421); test: FACS on CHO-K1-hMSLN-2C8 cells; antibody […]
[25] = biological target: monkey MSLN full-length protein (NCBI: XP_028696439.1) on HEK293T cells (monkey); test: FACS on HEK293T-monkey MSLN cells; antibody 0.8 nM
[26] = biological target: human MSLN protein, endogenously expressed on Hela and OVCAR3 cells (human) (UniProt Q13421); test: FACS on OVCAR3 cells; antibody 0.0064 nM
Sequence of human MSLN protein, endogenously expressed on Hela and OVCAR3 cells (human) (Q13421 other isoform, or with tags, fused parts or gaps): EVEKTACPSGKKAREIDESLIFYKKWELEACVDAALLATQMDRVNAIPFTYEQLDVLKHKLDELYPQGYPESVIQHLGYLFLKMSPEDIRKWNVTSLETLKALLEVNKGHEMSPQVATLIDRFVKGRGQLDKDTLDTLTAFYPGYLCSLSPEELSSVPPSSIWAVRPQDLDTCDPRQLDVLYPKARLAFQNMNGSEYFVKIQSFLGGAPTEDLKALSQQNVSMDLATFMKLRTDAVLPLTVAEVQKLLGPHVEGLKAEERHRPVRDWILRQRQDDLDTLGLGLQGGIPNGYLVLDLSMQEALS

[27] = biological target: monkey MSLN full-length protein (NCBI: XP_028696439.1) on HEK293T cells (monkey); test: FACS on HEK293T-monkey MSLN cells; antibody […]
[28] = biological target: monkey MSLN full-length protein (NCBI: XP_028696439.1) on HEK293T cells (monkey); test: FACS on HEK293T-monkey MSLN cells; antibody 100 nM
[29] = biological target: monkey MSLN full-length protein (NCBI: XP_028696439.1) on HEK293T cells (monkey); test: FACS on HEK293T-monkey MSLN cells; antibody 0.032 nM
[30] = biological target: monkey MSLN full-length protein (NCBI: XP_028696439.1) on HEK293T cells (monkey); test: FACS on HEK293T-monkey MSLN cells; antibody 0.00128 nM
[31] = biological target: human MSLN protein, endogenously expressed on Hela and OVCAR3 cells (human) (UniProt Q13421); test: FACS on OVCAR3 cells; antibody 100 nM
[32] = biological target: human MSLN protein, endogenously expressed on Hela and OVCAR3 cells (human) (UniProt Q13421); test: FACS on OVCAR3 cells; antibody 20 nM
[33] = biological target: human MSLN full-length protein (NCBI: AAH09272.1) on stably transfected CHO-K1 or HEK293T cells (human) (UniProt Q13421); test: FACS on CHO-K1-hMSLN-2C8 cells; antibody 20 nM
[34] = biological target: human MSLN protein, endogenously expressed on Hela and OVCAR3 cells (human) (UniProt Q13421); test: FACS on OVCAR3 cells; antibody 4 nM
[35] = biological target: human MSLN full-length protein (NCBI: AAH09272.1) on stably transfected CHO-K1 or HEK293T cells (human) (UniProt Q13421); test: FACS on CHO-K1-hMSLN-2C8 cells; antibody 0.00128 nM
[36] = biological target: monkey MSLN full-length protein (NCBI: XP_028696439.1) on HEK293T cells (monkey); test: FACS on HEK293T-monkey MSLN cells; antibody 0.0064 nM
[37] = biological target: human MSLN protein, endogenously expressed on Hela and OVCAR3 cells (human) (UniProt Q13421); test: FACS on OVCAR3 cells; antibody […]
[38] = biological target: human MSLN protein, endogenously expressed on Hela and OVCAR3 cells (human) (UniProt Q13421); test: FACS on OVCAR3 cells; antibody 0.8 nM
[39] = biological target: human MSLN full-length protein (NCBI: AAH09272.1) on stably transfected CHO-K1 or HEK293T cells (human) (UniProt Q13421); test: FACS on CHO-K1-hMSLN-2C8 cells; antibody 0.0064 nM
[40] = biological target: human MSLN full-length protein (NCBI: AAH09272.1) on stably transfected CHO-K1 or HEK293T cells (human) (UniProt Q13421); test: FACS on CHO-K1-hMSLN-2C8 cells; antibody 0.032 nM
[41] = biological target: human MSLN full-length protein (NCBI: AAH09272.1) on stably transfected CHO-K1 or HEK293T cells (human) (UniProt Q13421); test: FACS on CHO-K1-hMSLN-2C8 cells; antibody 4 nM
[42] = biological target: human MSLN full-length protein (NCBI: AAH09272.1) on stably transfected CHO-K1 or HEK293T cells (human) (UniProt Q13421); test: FACS on CHO-K1-hMSLN-2C8 cells; antibody 0.8 nM
[43] = biological target: human MSLN full-length protein (NCBI: AAH09272.1) on stably transfected CHO-K1 or HEK293T cells (human) (UniProt Q13421); test: FACS on CHO-K1-hMSLN-2C8 cells; antibody 100 nM
[44] = biological target: human MSLN protein, endogenously expressed on Hela and OVCAR3 cells (human) (UniProt Q13421); test: FACS on OVCAR3 cells; antibody 0.00128 nM
[45] = biological target: human MSLN protein, endogenously expressed on Hela and OVCAR3 cells (human) (UniProt Q13421); test: FACS on OVCAR3 cells; antibody 0.032 nM

Sequence of human MSLN-R2-his protein (human) (Q13421 other isoform, or with tags, fused parts or gaps): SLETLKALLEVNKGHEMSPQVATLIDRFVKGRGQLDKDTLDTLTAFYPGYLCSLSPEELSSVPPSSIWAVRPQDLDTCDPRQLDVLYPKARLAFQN

OD450 at 0.0001 nM [1]: 0.03 OD450
Substance: Tab108 (YP218, scFv-hIgG1 Fc) (Fc fusion)

OD450 [2]: 0.05 OD450 | OD450 [3]: 0.04 OD | OD450 [4]: 0.06 OD450 | OD450 [5]: 0.1 OD450 | OD450 [6]: 0.08 OD450 | OD450 [7]: 0.05 OD450 | OD450 [8]: 0.05 OD450 | OD450 [9]: 0.04 OD | OD450 [10]: 0.05 OD450 | OD450 [11]: 0.04 OD | OD450 [12]: 0.07 OD450 | OD450 [13]: 0.05 OD450 | OD450 at 0.0001 nM [14]: 0.07 OD450 | OD450 at 0.001 nM [14]: 0.07 OD450 | OD450 at 0.01 nM [14]: 0.06 OD450 | OD450 at 0.1 nM [14]: 0.06 OD450 | OD450 at 1 nM [14]: 0.06 OD450 | OD450 at 10 nM [14]: 0.07 OD450 | OD450 at none (no antibody) [14]: 0.08 OD450 | OD450 [15]: 0.07 OD450 | OD450 [16]: 0.05 OD450 | OD450 [17]: 0.05 OD450 | OD450 [18]: 0.04 OD | OD450 [19]: 0.33 OD | OD450 [20]: 0.52 OD
Substance: anti-hel-hIgG1 (antibody)

FACS fluorescence intensity [21]: 85 | FACS fluorescence intensity [22]: 84 | OD450 nm [23]: 0.06 | FACS fluorescence intensity [24]: 59 | FACS fluorescence intensity [25]: 87 | FACS fluorescence intensity [26]: 74 | FACS fluorescence intensity [27]: 85 | FACS fluorescence intensity [28]: 127 | FACS fluorescence intensity [29]: 125 | FACS fluorescence intensity [30]: 84 | FACS fluorescence intensity [31]: 93 | FACS fluorescence intensity [32]: 78 | FACS fluorescence intensity [33]: 156 | FACS fluorescence intensity [34]: 74 | FACS fluorescence intensity [35]: 116 | FACS fluorescence intensity [36]: 85 | FACS fluorescence intensity [37]: 74 | FACS fluorescence intensity [38]: 76 | FACS fluorescence intensity [39]: 65 | FACS fluorescence intensity [40]: 59 | FACS fluorescence intensity [41]: 110 | FACS fluorescence intensity [42]: 80 | FACS fluorescence intensity [43]: 72 | FACS fluorescence intensity [44]: 75 | FACS fluorescence intensity [45]: 75
Substance: hIgG1 (human IgG1 subtype control of Example 1) (antibody)
